Results from paper PMC4838857, “Tum/RacGAP functions as a switch activating the Pav/kinesin-6 motor” (Nature Communications, 2016).

How the values were obtained:
[1] = target: Pav/kinesin-6 (Pavarotti, Pav-KLP), full length with C-terminal 6xHis (Drosophila melanogaster); assay: SEC + other: sucrose gradient sedimentation; hydrodynamic analysis (Siegel and Monty) of centralspindlin purified from co-expression: Superose 6 and 5-20% sucrose gradient, 4 °C
[2] = target: Pav/kinesin-6 (Pavarotti, Pav-KLP), full length with C-terminal 6xHis (Drosophila melanogaster); assay: SEC + other: sucrose gradient sedimentation; hydrodynamic analysis (Siegel and Monty) of the in vitro add-back: equal molar Pav/kinesin-6 and Tum/RacGAP, purified apart, mixed and incubated
[3] = target: Pav/kinesin-6 (Pavarotti, Pav-KLP), full length with C-terminal 6xHis (Drosophila melanogaster); assay: SEC + other: sucrose gradient sedimentation; hydrodynamic analysis (Siegel and Monty) of each protein alone: Stokes radius by Superose 6, S value on 5-20% sucrose gradient, 9 h at 55,000 r.p.m., 4 °C
[4] = target: Pav/kinesin-6 (Pavarotti, Pav-KLP), full length with C-terminal 6xHis (Drosophila melanogaster)
[5] = target: Tum/RacGAP (Tumbleweed, RacGAP50C), full length with C-terminal 6xHis (Drosophila melanogaster); assay: SEC + other: sucrose gradient sedimentation; hydrodynamic analysis (Siegel and Monty) of the in vitro add-back: equal molar Pav/kinesin-6 and Tum/RacGAP, purified apart, mixed and incubated
[6] = target: Tum/RacGAP (Tumbleweed, RacGAP50C), full length with C-terminal 6xHis (Drosophila melanogaster); assay: SEC + other: sucrose gradient sedimentation; hydrodynamic analysis (Siegel and Monty) of each protein alone: Stokes radius by Superose 6, S value on 5-20% sucrose gradient, 9 h at 55,000 r.p.m., 4 °C
[7] = target: Tum/RacGAP (Tumbleweed, RacGAP50C), full length, untagged, co-expressed with Pav/kinesin-6 (Drosophila melanogaster); assay: SEC + other: sucrose gradient sedimentation; hydrodynamic analysis (Siegel and Monty) of centralspindlin purified from co-expression: Superose 6 and 5-20% sucrose gradient, 4 °C
[8] = substrate: Nc1ncnc2c1ncn2[C@@H]1O[C@H](COP(=O)(O)OP(=O)(O)OP(=O)(O)O)[C@@H](O)[C@H]1O; assay: microtubule gliding velocity vs [MgATP], Lineweaver-Burk; format: biochemical, Drosophila melanogaster; details: motility-derived Km, saturating taxol-stabilised microtubules, Mg2+, pH 8.0, 150 mM KCl
Text: microtubule gliding velocity vs [MgATP], Lineweaver-Burk on centralspindlin (co-expressed Pav/Tum)

## Pav/kinesin-6 (Pavarotti, Pav-KLP), full length with C-terminal 6xHis (natural protein)
[1]
  stoichiometry N: 2 subunits
[2]
  stoichiometry N: 2 subunits
[3]
  stoichiometry N: 2 subunits

## Tum1-65 fragment (1-65aa of Tum/RacGAP) with C-terminal 6xHis (domain or fragment)
[4]
  MT gliding velocity of Pav+Tum1-65 (in vitro add-back); Pav/kinesin-6 alone 0: 0.075 μm s^-1

## Tum/RacGAP (Tumbleweed, RacGAP50C), full length with C-terminal 6xHis (natural protein)
[4]
  MT gliding velocity of Pav+Tum (in vitro add-back, equal molar); Pav/kinesin-6 alone 0: 0.062 μm s^-1
[5]
  stoichiometry N: 2 subunits
[6]
  stoichiometry N: 2 subunits

## Tum/RacGAP (Tumbleweed, RacGAP50C), full length, untagged, co-expressed with Pav/kinesin-6 (natural protein)
[4]
  MT gliding velocity of centralspindlin (co-expressed Pav/Tum); Pav/kinesin-6 alone 0: 0.103 μm s^-1
[7]
  stoichiometry N: 2 subunits

B1: centralspindlin (co-expressed Pav/Tum) (Drosophila melanogaster) (protein)
chain: MKAVPRTPMRVVPKTPRVHQTVEKQRRDTSDKARDPVNVFCRVRPLQSDADLTSLRVKNSTTIALNPQDQLLQHHKPHNGAQREVQYIFKHVFQPDATQQDVYAAVAQPLVENLLKGRNSLLFTYGVTGSGKTYTMTGNLRHRGIMPRCLDVLFRTISDYQAKKFVFKPDKLNGFEILSEEDALLERQHEMNQRFAGSGRFAFRHKDSDPEIASQASVEPIPLLGLDEDNMYSVFVTYIEIYNNSVYDLLEDSGIQKTLQSKIIREDANRHMFVHGVTEVEVKTVEDALEVFQMGQKRKRMGHTVLNAESSRSHSVFNIRLVQAPTDSQGENVVQDRQNITVSQLSLVDLAGSERSSRTKNTGVRLREAGNINNSLMTLRTCLEYLRENQLAASNGLAPKKVPYRDSKITHMFKNYFDGEGQVSMIVCINPRIEDYDENMQVMKFAEMTQEVQIARATPMKQDLGLTPGRRKANKLFKIAVNNLNELGIPEAKDLEVDVGLVYSLGPDFPAYEMDSPEAQIKIRELMHYLEQRIEKRKKLRANLDIKCDSFRQMLMNLDRDNLQLRTELASLKAVYKQERDRSAALEKKVRIHESSIDVLNNTLSKQERQIEELTFKLNEKENMLTQKEHEKEKQKKKFSSKLAVESDKNKREFELKLREQRVKLQERMRIKDEKLRLVSNILQSEDLPSLPRSQSSENILNEKDRGAYTARTEESSVPATRTDIYATPRHGAAAANNRHRRSRSAGDKWLEHRAANPVPLGTIMQPYLKNRKSVTKLTDLKELTAHGTTKYCLVSQDADTDGDVETKLYKGNVIPTCGGGAQVVFNDVECLKQKSPVHSPTRKRPSNGNISALGGGAVPSTVTSAQDVASRCNLGIEGHSSKKSKI
notes: full-length Pav with C-terminal 6xHis co-expressed with untagged full-length Tum in Sf9 (baculovirus), Ni-NTA and Superose 6; heterotetramer 372 kDa (2 Pav 107 kDa + 2 Tum 65 kDa); cDNA errors in Tum corrected
[8]
  Km: 79 ± 13 µM
